Data taken from IntAct's records for PubMed 29892012.

B1: Abl interactor 2 (Homo sapiens), Q9NYB9 (parent)
chain: MAELQMLLEEEIPGGRRALFDSYTNLERVADYCENNYIQSADKQRALEETKAYTTQSLASVAYLINTLANNVLQMLDIQASQLRRMESSINHISQTVDIHKEKVARREIGILTTNKNTSRTHKIIAPANLERPVRYIRKPIDYTILDDIGHGVKWLLRFKVSTQNMKMGGLPRTTPPTQKPPSPPMSGKGTLGRHSPYRTLEPVRPPVVPNDYVPSPTRNMAPSQQSPVRTASVNQRNRTYSSSGSSGGSHPSSRSSSRENSGSGSVGVPIAVPTPSPPSVFPAPAGSAGTPPLPATSASAPAPLVPATVPSSTAPNAAAGGAPNLADGFTSPTPPVVSSTPPTGHPVQFYSMNRPASRHTPPTIGGSLPYRRPPSITSQTSLQNQMNGGPFYSQNPVSDTPPPPPPVEEPVFDESPPPPPPPEDYEEEEAAVVEYSDPYAEEDPPWAPRSYLEKVVAIYDYTKDKEDELSFQEGAIIYVIKKNDDGWYEGVMNGVTGLFPGNYVESIMHYSE
partner: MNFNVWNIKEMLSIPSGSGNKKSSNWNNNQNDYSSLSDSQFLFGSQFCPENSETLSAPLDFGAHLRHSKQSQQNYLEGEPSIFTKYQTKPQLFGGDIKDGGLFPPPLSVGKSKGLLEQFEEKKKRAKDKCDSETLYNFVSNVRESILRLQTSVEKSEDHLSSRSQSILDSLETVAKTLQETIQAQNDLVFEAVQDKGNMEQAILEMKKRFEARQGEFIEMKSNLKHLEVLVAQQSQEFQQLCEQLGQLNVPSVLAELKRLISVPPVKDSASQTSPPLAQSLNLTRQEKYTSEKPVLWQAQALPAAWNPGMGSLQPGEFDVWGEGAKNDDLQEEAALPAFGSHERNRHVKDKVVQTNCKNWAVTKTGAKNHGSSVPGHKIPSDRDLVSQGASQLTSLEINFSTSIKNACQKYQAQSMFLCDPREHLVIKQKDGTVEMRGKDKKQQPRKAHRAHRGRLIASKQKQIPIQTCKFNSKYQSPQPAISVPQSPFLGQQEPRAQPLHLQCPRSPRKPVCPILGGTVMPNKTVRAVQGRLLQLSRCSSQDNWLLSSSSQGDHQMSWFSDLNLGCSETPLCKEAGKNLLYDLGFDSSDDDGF
B2: E3 ubiquitin-protein ligase LNX (Homo sapiens), Q8TBB1 (parent)
chain: MNQPESANDPEPLCAVCGQAHSLEENHFYSYPEEVDDDLICHICLQALLDPLDTPCGHTYCTLCLTNFLVEKDFCPMDRKPLVLQHCKKSSILVNKLLNKLLVTCPFREHCTQVLQRCDLEHHFQTSCKGASHYGLTKDRKRRSQDGCPDGCASLTATAPSPEVSAAATISLMTDEPGLDNPAYVSSAEDGQPAISPVDSGRSNRTRARPFERSTIRSRSFKKINRALSVLRRTKSGSAVANHADQGRENSENTTAPEVFPRLYHLIPDGEITSIKINRVDPSESLSIRLVGGSETPLVHIIIQHIYRDGVIARDGRLLPGDIILKVNGMDISNVPHNYAVRLLRQPCQVLWLTVMREQKFRSRNNGQAPDAYRPRDDSFHVILNKSSPEEQLGIKLVRKVDEPGVFIFNVLDGGVAYRHGQLEENDRVLAINGHDLRYGSPESAAHLIQASERRVHLVVSRQVRQRSPDIFQEAGWNSNGSWSPGPGERSNTPKPLHPTITCHEKVVNIQKDPGESLGMTVAGGASHREWDLPIYVISVEPGGVISRDGRIKTGDILLNVDGVELTEVSRSEAVALLKRTSSSIVLKALEVKEYEPQEDCSSPAALDSNHNMAPPSDWSPSWVMWLELPRCLYNCKDIVLRRNTAGSLGFCIVGGYEEYNGNKPFFIKSIVEGTPAYNDGRIRCGDILLAVNGRSTSGMIHACLARLLKELKGRITLTIVSWPGTFL
partner: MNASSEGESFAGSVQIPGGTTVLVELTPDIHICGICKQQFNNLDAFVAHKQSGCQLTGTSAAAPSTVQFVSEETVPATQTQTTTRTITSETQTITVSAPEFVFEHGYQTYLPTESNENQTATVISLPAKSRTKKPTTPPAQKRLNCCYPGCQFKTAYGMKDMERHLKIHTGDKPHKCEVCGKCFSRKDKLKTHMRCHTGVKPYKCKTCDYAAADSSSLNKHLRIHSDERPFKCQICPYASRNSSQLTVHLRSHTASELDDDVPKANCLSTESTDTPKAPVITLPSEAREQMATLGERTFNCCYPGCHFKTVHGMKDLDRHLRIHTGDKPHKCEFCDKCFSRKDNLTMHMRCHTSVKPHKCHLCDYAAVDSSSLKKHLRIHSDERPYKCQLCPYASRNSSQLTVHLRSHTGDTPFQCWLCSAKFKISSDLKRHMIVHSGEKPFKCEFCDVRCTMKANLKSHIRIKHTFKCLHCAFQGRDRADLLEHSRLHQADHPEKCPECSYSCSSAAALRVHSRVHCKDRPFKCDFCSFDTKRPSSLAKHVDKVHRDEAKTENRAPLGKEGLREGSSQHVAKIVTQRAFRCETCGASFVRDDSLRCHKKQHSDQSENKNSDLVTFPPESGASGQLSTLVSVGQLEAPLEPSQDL
B3: E3 ubiquitin-protein ligase LNX (Homo sapiens), Q8TBB1 (parent)
chain: B2 chain
partner: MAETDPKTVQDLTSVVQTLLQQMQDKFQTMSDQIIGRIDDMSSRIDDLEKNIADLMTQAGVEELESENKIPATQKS
B4: E3 ubiquitin-protein ligase LNX (Homo sapiens), Q8TBB1 (parent)
chain: B2 chain
partner: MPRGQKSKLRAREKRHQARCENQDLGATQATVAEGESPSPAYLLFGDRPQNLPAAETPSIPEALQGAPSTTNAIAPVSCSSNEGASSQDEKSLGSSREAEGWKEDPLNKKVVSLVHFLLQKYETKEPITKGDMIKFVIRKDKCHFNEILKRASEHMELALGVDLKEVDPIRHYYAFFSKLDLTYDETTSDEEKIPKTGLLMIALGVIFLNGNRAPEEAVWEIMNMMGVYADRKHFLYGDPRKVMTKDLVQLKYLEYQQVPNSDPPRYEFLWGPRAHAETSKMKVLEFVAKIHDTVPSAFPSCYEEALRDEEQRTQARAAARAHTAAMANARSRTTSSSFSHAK
B5: E3 ubiquitin-protein ligase LNX (Homo sapiens), Q8TBB1 (parent)
chain: B2 chain
partner: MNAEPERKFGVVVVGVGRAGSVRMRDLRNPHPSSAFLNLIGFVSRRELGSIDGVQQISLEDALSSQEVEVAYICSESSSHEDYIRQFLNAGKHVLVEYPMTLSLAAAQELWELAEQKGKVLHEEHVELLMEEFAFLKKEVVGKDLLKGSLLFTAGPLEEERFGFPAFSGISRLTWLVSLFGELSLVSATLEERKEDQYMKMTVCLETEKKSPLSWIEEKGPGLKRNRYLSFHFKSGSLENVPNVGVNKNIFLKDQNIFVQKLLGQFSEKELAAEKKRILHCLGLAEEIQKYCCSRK

Variants of: B1
Conditions: with iho1_human IHO1, Q8IYA8
For E202K, the “effect of a mutation on the interaction” value was “with no effect”.

Variants of: B1
Conditions: with iho1_human IHO1, Q8IYA8
Remark: another data set of the same source
For R373C, the “effect of a mutation on the interaction” value was “with no effect”.

Variants of: B2
Conditions: with zf64b_human ZFP64, Q9NTW7
E295K was tested, and the “effect of a mutation on the interaction” value was “disrupting interaction strength”.

Variants of: B3
Conditions: with hsbp1_human HSBP1, O75506
In the case of E295K, the “effect of a mutation on the interaction” value is reported as “disrupting interaction strength”.

Variants of: B4
Conditions: with magbi_human MAGEB18, Q96M61
E295K was tested, and the “effect of a mutation on the interaction” value was “disrupting interaction strength”.

Variants of: B5
Conditions: with biea_human BLVRA
For E295K, the “effect of a mutation on the interaction” value was “disrupting interaction strength”.
